{"source": "paper PMC10950897", "about": "“VCF1 is a p97/VCP cofactor promoting recognition of ubiquitylated p97-UFD1-NPL4 substrates” (Nature Communications, 2024)", "molecules": {"B1": {"name": "Isocitrate dehydrogenase [NAD] subunit gamma, mitochondrial (protein, UniProt P51553 40-393, looked up)", "Isocitrate dehydrogenase …": "FSEQTIPPSAKYGGRHTVTMIPGDGIGPELMLHVKSVFRHACVPVDFEEVHVSSNADEEDIRNAIMAIRRNRVALKGNIETNHNLPPSHKSRNNILRTSLDLYANVIHCKSLPGVVTRHKDIDILIVRENTEGEYSSLEHESVAGVVESLKIITKAKSLRIAEYAFKLAQESGRKKVTAVHKANIMKLGDGLFLQCCREVAARYPQITFENMIVDNTTMQLVSRPQQFDVMVMPNLYGNIVNNVCAGLVGGPGLVAGANYGHVYAVFETATRNTGKSIANKNIANPTATLLASCMMLDHLKLHSYATSIRKAVLASMDNENMHTPDIGGQGTTSEAIQDVIRHIRVINGRAVEA", "notes": "prey protein"}, "B2": {"name": "U4/U6.U5 tri-snRNP-associated protein 2 (protein, UniProt Q53GS9 1-565, looked up)", "Ubiquitin carboxyl-terminal …": "MSGRSKRESRGSTRGKRESESRGSSGRVKRERDREREPEAASSRGSPVRVKREFEPASAREAPASVVPFVRVKREREVDEDSEPEREVRAKNGRVDSEDRRSRHCPYLDTINRSVLDFDFEKLCSISLSHINAYACLVCGKYFQGRGLKSHAYIHSVQFSHHVFLNLHTLKFYCLPDNYEIIDSSLEDITYVLKPTFTKQQIANLDKQAKLSRAYDGTTYLPGIVGLNNIKANDYANAVLQALSNVPPLRNYFLEEDNYKNIKRPPGDIMFLLVQRFGELMRKLWNPRNFKAHVSPHEMLQAVVLCSKKTFQITKQGDGVDFLSWFLNALHSALGGTKKKKKTIVTDVFQGSMRIFTKKLPHPDLPAEEKEQLLHNDEYQETMVESTFMYLTLDLPTAPLYKDEKEQLIIPQVPLFNILAKFNGITEKEYKTYKENFLKRFQLTKLPPYLIFCIKRFTKNNFFVEKNPTIVNFPITNVDLREYLSEEVQAVHKNTTYDLIANIVHDGKPSEGSYRIHVLHHGTGKWYELQDLQVTDILPQMITLSEAYIQIWKRRDNDETNQQGA", "notes": "prey protein"}, "B3": {"name": "LMNA (protein, UniProt P02545 1-661, looked up)", "Prelamin-A/C": "METPSQRRATRSGAQASSTPLSPTRITRLQEKEDLQELNDRLAVYIDRVRSLETENAGLRLRITESEEVVSREVSGIKAAYEAELGDARKTLDSVAKERARLQLELSKVREEFKELKARNTKKEGDLIAAQARLKDLEALLNSKEAALSTALSEKRTLEGELHDLRGQVAKLEAALGEAKKQLQDEMLRRVDAENRLQTMKEELDFQKNIYSEELRETKRRHETRLVEIDNGKQREFESRLADALQELRAQHEDQVEQYKKELEKTYSAKLDNARQSAERNSNLVGAAHEELQQSRIRIDSLSAQLSQLQKQLAAKEAKLRDLEDSLARERDTSRRLLAEKEREMAEMRARMQQQLDEYQELLDIKLALDMEIHAYRKLLEGEEERLRLSPSPTSQRSRGRASSHSSQTQGGGSVTKKRKLESTESRSSFSQHARTSGRVAVEEVDEEGKFVRLRNKSNEDQSMGNWQIKRQNGDDPLLTYRFPPKFTLKAGQVVTIWAAGAGATHSPPTDLVWKAQNTWGCGNSLRTALINSTGEEVAMRKLVRSVTVVEDDEDEDGDDLLHHHHGSHCSSSGDPAEYNLRSRTVLCGTCGQPADKASASGSGAQVGGPISSGSSASSVTVTRSYRSVGGSGGGSFGDNLVTRSYLLGNSSPRTQSPQNC"}, "B4": {"name": "p47: p97 cofactor (protein)", "chain": "MAAERQEALREFVAVTGAEEDRARFFLESAGWDLQIALASFYEDGGDEDIVTISQATPSSVSRGTAPSDNRVTSFRDLIHDQDEDEEEEEGQRFYAGGSERSGQQIVGPPRKKSPNELVDDLFKGAKEHGAVAVERVTKSPGETSKPRPFAGGGYRLGAAPEEESAYVAGEKRQHSSQDVHVVLKLWKSGFSLDNGELRSYQDPSNAQFLESIRRGEVPAELRRLAHGGQVNLDMEDHRDEDFVKPKGAFKAFTGEGQKLGSTAPQVLSTSSPAQQAENEAKASSSILIDESEPTTNIQIRLADGGRLVQKFNHSHRISDIRLFIVDARPAMAATSFILMTTFPNKELADESQTLKEANLLNAVIVQRLT", "modifications": "left off: His6, end not stated, state not stated", "notes": "p97 cofactor"}, "B5": {"name": "Complement component 1 Q subcomponent-binding protein, mitochondrial (protein, UniProt Q07021 74-282, looked up)", "Complement component 1 Q …": "LHTDGDKAFVDFLSDEIKEERKIQKHKTLPKMSGGWELELNGTEAKLVRKVAGEKITVTFNINNSIPPTFDGEEEPSQGQKVEEQEPELTSTPNFVVEVIKNDDGKKALVLDCHYPEDEVGQEDEAESDIFSIREVSFQSTGESEWKDTNYTLNTDSLDWALYDHLMDFLADRGVDNTFADELVELSTALEHQEYITFLEDLKSFVKSQ", "notes": "prey protein"}}, "key": {"[1]": {"system": "GFP-VCF1 WT interactome, U2OS cells", "test": "GFP IP mass spectrometry of VCF1-interacting proteins, partially denaturing RIPA buffer (+DOX/-DOX)", "assay_type": "binding, human", "method": "(§1) U2OS (catalog no. HTB-96) cells were obtained from ATCC. HEK293-EBNA1-6E cells were a kind gift from Yves Durocher (National Research Council Canada, Montreal, Canada). All mammalian cell lines were cultured under standard conditions at 37 °C and 5% CO2 in DMEM (Thermo) supplemented with 10% FBS (v/v) and penicillin-streptomycin (Thermo). Recombination cloning-compatible U2OS cells were generated using the Flp-In T-Rex Core Kit (Thermo) according to the manufacturer’s instructions and maintained under selection using Blasticidin (Invivogen) and Zeocin (Thermo). To generate cell lines stably expressing GFP-VCF1, U2OS Flp-In T-Rex cells (Thermo) were co-transfected with GFP-VCF1 constructs and pOG44 (Thermo) plasmids, followed by selection with Hygromycin (Invitrogen). Single clones were carefully screened for uniform expression of ectopic GFP-VCF1 at low levels and maintained under selection with Blasticidin and Hygromycin. To induce GFP-VCF1 expression, cells were treated with Doxycycline (DOX) (0.5 µg/ml) for 16 h. U2OS cell lines stably expressing Ub(G76V)-GFP or Ub(G76V)-GFP-20AA were described previously. A U2OS cell line stably expressing Ub(G76V)-GFP-NES was generated under G418 (Invivogen) selection. Clones with low baseline GFP expression were visually screened for low basal GFP expression. All cell lines used in this study were regularly tested negative for mycoplasma infection and were not authenticated.\nImmunoblotting was performed as previously described. Immunoprecipitation (IP) of HA-tagged proteins was performed using Anti-HA Affinity matrix (Roche) under denaturing conditions, unless otherwise stated. GFP-trap and […] Fab-trap agarose (Chromotek) were used according to manufacturer’s instructions. Cell lysis was performed using RIPA buffer (140 mM NaCl; 10 mM Tris-HCl, pH 8.0; 0.1% sodium deoxycholate; 1% Triton X-100; 0.1% SDS; 1 mM EDTA; 0.5 mM EGTA) or EBC buffer (50 mM Tris, pH 7.5; 150 mM NaCl; 1 mM EDTA; 0.5% NP-40, 1 mM DTT). IPs were washed in non-denaturing buffer (50 mM Tris-HCl, pH 7.5; 150 mM NaCl; 0.5 mM EDTA). […]"}, "[2]": {"system": "GFP-VCF1 WT / N167A interactome, U2OS cells", "test": "GFP IP mass spectrometry, comparison of VCF1 WT and N167A interactomes (WT/N167A)", "assay_type": "binding, human", "conditions": "GFP-VCF1 WT / N167A IPs, partially denaturing RIPA buffer", "method": "as §1, with “All cell lines used in this study were regularly tested negative for mycoplasma infection and were not authenticated.” left out"}, "[3]": {"system": "p97 with UFD1-NPL4, p47 or FAF1", "test": "In vitro binding with p97 cofactors (GST, StrepTactin, p47, p97 or FLAG pulldown)", "parameters": "species or system human", "conditions": "high/increasing concentrations", "method": "All in vitro binding experiments were performed in EBC or RIPA buffer as indicated. Recombinant Biotin-tagged K48-linked poly-ubiquitin chains (2−7) and K48-linked poly-ubiquitin chains (2−16) were purchased from R&D Systems and Enzo Life Science, respectively. Recombinant proteins were incubated with Strep-Tactin Sepharose (IBA), Glutathione agarose (Gold Biotechnology) or […] Fab-trap agarose (ChromoTek) overnight on an end-over-end rotator at 4 °C, washed six times with EBC or RIPA buffer, and resuspended in 2×Laemmli sample buffer. For p97, VCF1 or p47 pulldowns, antibodies (0.5 µg/sample) were coupled to agarose beads, incubated with recombinant proteins or cell lysates and washed with the indicated buffer. To assess p97-UFD1-NPL4 binding to ubiquitylated proteins in total cell extracts, U2OS cells were lysed in EBC buffer supplemented with protease and phosphatase inhibitors, sonicated and incubated on ice for 10 min. Lysates were cleared by centrifugation for 10 min at 16,100 × g. Cell lysate (40 µg) was added to recombinant proteins in EBC buffer, incubated overnight on the rotator with […] Fab-trap agarose (ChromoTek), and beads were washed six times."}, "p97": {"target": "p97", "conditions": "reported for p47/NSFL1C; cited from earlier work", "excerpt": "Through in silico searches for candidate regulators of p97 function, we came across FAM104A, a virtually uncharacterized protein detected in unbiased large-scale proteomic profiles of p97 interaction networks along with known p97 cofactors (Supplementary Fig. 1a)[20],[21], but whose precise connection to p97 has not been studied. In humans, FAM104A encodes a relatively small protein of 186 amino acids that contains no annotated domains but is conserved across vertebrates (Supplementary Fig. 1b) and is broadly expressed, albeit at low levels, in human tissues. For reasons described in the follo ..."}}}
{"molecule": "B1", "values": [{"measurement": "Relative protein level (log2) WT/noDox", "setting": "[1]", "result": 1.726, "unit": "log2"}]}
{"molecule": "B2", "values": [{"measurement": "Relative protein level (log2) WT/noDox", "setting": "[1]", "result": 1.44, "unit": "log2"}]}
{"molecule": "B3", "values": [{"measurement": "Relative protein level (log2) WT/MUT", "setting": "[2]", "result": 3.361, "unit": "log2"}]}
{"molecule": "B4", "values": [{"measurement": "displacement of p97-bound cofactors", "setting": "[3]", "result": "did not lead to dissociation of VCF1 from p97"}, {"measurement": "Kd", "setting": "p97", "result": "200 to 500", "unit": "nM"}]}
{"molecule": "B5", "values": [{"measurement": "Relative protein level (log2) WT/noDox", "setting": "[1]", "result": 2.689, "unit": "log2"}]}
